Source: patent US7888089B2, “eNOS mutations useful for gene therapy and therapeutic screening” (Yale University, priority 1999, dated 2011)
Substitutions are numbered along the chain they refer to. Names may count otherwise.

B1: Wild type: Wild type bovine endothelial nitric oxide synthase (eNOS) (protein, UniProt P29473 2-1205, looked up)
Nitric oxide synthase 3: GNLKSVGQEPGPPCGLGLGLGLGLCGKQGPASPAPEPSRAPAPATPHAPDHSPAPNSPTLTRPPEGPKFPRVKNWELGSITYDTLCAQSQQDGPCTPRCCLGSLVLPRKLQTRPSPGPPPAEQLLSQARDFINQYYSSIKRSGSQAHEERLQEVEAEVASTGTYHLRESELVFGAKQAWRNAPRCVGRIQWGKLQVFDARDCSSAQEMFTYICNHIKYATNRGNLRSAITVFPQRAPGRGDFRIWNSQLVRYAGYRQQDGSVRGDPANVEITELCIQHGWTPGNGRFDVLPLLLQAPDEAPELFVLPPELVLEVPLEHPTLEWFAALGLRWYALPAVSNMLLEIGGLEFSAAPFSGWYMSTEIGTRNLCDPHRYNILEDVAVCMDLDTRTTSSLWKDKAAVEINLAVLHSFQLAKVTIVDHHAATVSFMKHLDNEQKARGGCPADWAWIVPPISGSLTPVFHQEMVNYILSPAFRYQPDPWKGSATKGAGITRKKTFKEVANAVKISASLMGTLMAKRVKATILYASETGRAQSYAQQLGRLFRKAFDPRVLCMDEYDVVSLEHEALVLVVTSTFGNGDPPENGESFAAALMEMSGPYNSSPRPEQHKSYKIRFNSVSCSDPLVSSWRRKRKESSNTDSAGALGTLRFCVFGLGSRAYPHFCAFARAVDTRLEELGGERLLQLGQGDELCGQEEAFRGWAKAAFQASCETFCVGEEAKAAAQDIFSPKRSWKRQRYRLSTQAEGLQLLPGLIHVHRRKMFQATVLSVENLQSSKSTRATILVRLDTAGQEGLQYQPGDHIGICPPNRPGLVEALLSRVEDPPPPTESVAVEQLEKGSPGGPPPSWVRDPRLPPCTLRQALTFFLDITSPPSPRLLRLLSTLAEEPSEQQELETLSQDPRRYEEWKWFRCPTLLEVLEQFPSVALPAPLLLTQLPLLQPRYYSVSSAPNAHPGEVHLTVAVLAYRTQDGLGPLHYGVCSTWLSQLKTGDPVPCFIRGAPSFRLPPDPYVPCILVGPGTGIAPFRGFWQERLHDIESKGLQPAPMTLVFGCRCSQLDHLYRDEVQDAQERGVFGRVLTAFSREPDSPKTYVQDILRTELAAEVHRVLCLERGHMFVCGDVTMATSVLQTVQRILATEGDMELDEAGDVIGVLRDQQRYHEDIFGLTLRTQEVTSRIRTQSFSLQERHLRGAVPWAFDPPGPDTPGP
B2: S1179D: bovine eNOS with serine 1179 mutated to aspartic acid (protein)
chain: B1 Nitric oxide synthase 3 with S1178D

Tests used:
Akt = test: In vitro kinase reaction with Akt immunoprecipitated from COS cells; type: biochemical; details: HA-Akt immunoprecipitate, n=3
COS cells = test: cGMP accumulation in transfected COS cells as bioassay for NO; type: cell-based; details: eNOS alone or eNOS with Akt construct
From the text: (§1) Cell Transfections: The bovine eNOS, human iNOS, rat nNOS cDNAs in pcDNA3 and HA-tagged wild-type Akt, Akt (K179M) or myr-Akt in pCMV6 were generated by standard cloning methods. The myr-nNOS in pcDNA3 was generated by PCR, incorporating a new amino terminus containing the eNOS N-myristoylation consensus site (MGNLKSVG, SEQ ID NO:1) fused in frame to the second amino acid of the nNOS coding sequence. […] Mutation of the putative Akt phosphorylation sites in eNOS were generated using the Quick Change site-directed mutagenesis kit (Stratagene) according to the manufacturers instructions. All mutants were verified by DNA sequencing. COS-7 cells were plated (100 mm dish) and transfected with the NOS (7.5-30 mg) and Akt (1 mg) plasmids using calcium phosphate. To balance all transfections, the expression vector for β-galactosidase cDNA was used. Twenty-four to forty-eight hours after transfection, the expression of appropriate proteins (40-80 mg) were confirmed by Western blot analysis using eNOS mAb (9D10, Zymed), HA mAb (12CA5, Boehringer Mannheim), iNOS pAb (Zymed Laboratories) or nNOS mAb (Zymed Laboratories).
NO release from transfected COS cells: 24-48 hrs after transfection, media was processed for the measurement of nitrite (NO2^−), the stable breakdown product of NO in aqueous solution, by NO specific chemiluminescence as described (Sessa et al., 1995). […]

COS-7 cells = test: NO release (NO2−, chemiluminescence) from transfected COS cells; type: cell-based; details: NOS construct co-transfected with Akt
From the text: as §1
NO release from transfected COS cells: 24-48 hrs after transfection, media was processed for the measurement of nitrite (NO2^−), the stable breakdown product of NO in aqueous solution, by NO specific chemiluminescence as described (Sessa et al., 1995). Media was deproteinized and samples containing NO2^− were refluxed in glacial acetic acid containing sodium iodide. […] In all experiments, NO2^− release was inhibitable by a NOS inhibitor. In addition, NO2^−-release from cells transfected with the β-galactosidase cDNA was subtracted to control for background levels of NO2^− found in serum or media. In some experiments, cGMP accumulation in COS was used as a bioassay for the production of NO as described.

Molecule	phosphorylation of substrate by active Akt (Akt)	cGMP accumulation (COS cells) [pmol cGMP/mg protein]	Akt dependent NO release / activation of NOS construct (COS-7 cells)
B1	115.4±3.8 pmol of ATP/nmol substrate	5.5±0.8	
B2			partially mimics the activation state induced by Akt
